Experimental data taken from US6168954A, “Soybean glutathione-S-transferase enzymes” (E. I. du Pont de Nemours & Company, priority 1999, dated 2001).

How the values were obtained:
Format in all cases: biochemical
Conditions in all cases: 0.4 mM electrophilic substrate, 4 mM glutathione, 0.1 M MOPS pH 7.0, corrected for uncatalyzed reaction
[1] = GST conjugation activity with Atrazine (HPLC)
Text: (§1) The GST enzymes, expressed and purified as described in Example 5 were screened for their ability to metabolize a variety of substrates. Substrates tested included the three herbicide electrophilic substrates chlorimuron ethyl, alachlor, and Atrazine, and four model electrophilic substrates, 1-chloro-2, 4-dinitro-benzene (CDNB), ethacrynic acid, t-stilbene oxide, and 1,2-epoxy-3-(p-nitro-phenoxy) propane. The enzymes were purified as described in Example 5 and used in the following assay.
(§2) For each enzyme, the conjugation reaction with each electrophilic substrate was performed by incubating 0.3 to 30 μg enzyme in 0.1 M MOPS (pH 7.0) containing 0.4 mM of the electrophilic substrate. The reaction was inititated by the addition of glutathione to a final concentration of 4 mM. After 5 to 30 min, the reaction was terminated by the addition of 45 μL acetonitrile, microfuged for 10 min to remove precipitated protein, and then the supematent was removed and added to 65 μL of water. This sample was chromatographed on a Zorbax C8 reverse phase HPLC column (3 μm particle size, 6.2 mm×8 cm) using a combination of linear gradients (flow=1.5 mL/min) of 1% H3 PO4 in water (solvent A) and 1% H3 PO4 in acetonitile. The gradient started with 5% solvent B, progressing from 5% to 75% solvent B between 1 and 10 min, and from 75% to 95% solvent B between 10 and 12 min. Control reactions without enzyme were performed to correct for uncatalyzed reaction. Quantitation of metabolites were based on an assumption that the extinction coefficient of the conjugate was identical to that of the electrophilic substrate.
(§3) Activities are related to the activity of a known and previously isolated and purified GST enzyme, GH2/4 (also called GST 26) (Czarnecka et al., Plant Molecular Biology 3:45-58 (1984); Ulmasoz et al., Plant Physiol 108:919-927 (1995)).

[2] = GST conjugation activity with t-stilbene oxide (HPLC)
Text: as §1, §2, §3

[3] = GST conjugation activity with 1,2-epoxy-3-(p-nitrophenoxy)propane (HPLC)
Text: as §1, §2, §3

[4] = GST conjugation activity with chlorimuron ethyl (HPLC)
Text: as §1, §2, §3

[5] = GST conjugation activity with ethacrynic acid (HPLC)
Text: as §1, §2, §3

[6] = GST conjugation activity with alachlor (HPLC)
Text: as §1, §2, §3

[7] = GST conjugation activity with CDNB (HPLC)
Text: as §1, §2, §3

B1: se1.pk0017.f5: soybean type IV GST encoded by cDNA insert in clone se1.pk0017.f5 (protein)
chain: MASLGVRPVLPPPLTSISDPPPLFDGTTRLYISYSCPYAQRVWIARNYKGLQDKINLVPINLQDRPAWYKEKVYPENKVPSLEHNGKVLGESLDLIKYVDANFEGTPLFPSDPAKKEFGEQLISHVDTFSKDLFVSLKGDAVQQASPAFEYLENALGKFDDGPFLLGQFSLVDIAYIPFVERFQIVFAEVFKHDITEGRPKLATWFEELNKLNAYTETRVDPQEIVDLFKKRFLPQQ
Activity of soybean GST enzyme, Atrazine [1]: 0.00 nmol/min/mg | Activity of soybean GST enzyme, T-Stilbene Oxide [2]: 0.15 nmol/min/mg | Activity of soybean GST enzyme, 1,2-epoxy-3-(p-nitrophenoxy)propane [3]: 0 nmol/min/mg | Activity of soybean GST enzyme, Chlorimuron Ethyl [4]: 0.0 nmol/min/mg | Activity of soybean GST enzyme, Ethacrynic Acid [5]: 3 nmol/min/mg | Activity of soybean GST enzyme, Alachlor [6]: 0 nmol/min/mg | Activity of soybean GST enzyme, CDNB [7]: 30 nmol/min/mg

B2: se1.27b04: soybean type I GST encoded by cDNA insert in clone se1.27b04 (protein)
chain: MICLHEKEVDFELVPVNVFAAEHKQPPFLSKNPFGFIPVLEDGDLTLFESRAITAYVAEKFKETEPDLIRHKDAKEAALVKVWTEVESHYYEPAVSPIIYEYFVAPFQGKEPDKSVIDTNVEKLKTVLDVYEAKLSSTKYLAGDFYSLADLSHVSETHYLMQTPCASMINELPHVKAWWEDISSRPAFNKVVGGMSFGQNH
Activity of soybean GST enzyme, Atrazine [1]: 0.00 nmol/min/mg | Activity of soybean GST enzyme, T-Stilbene Oxide [2]: 0.00 nmol/min/mg | Activity of soybean GST enzyme, 1,2-epoxy-3-(p-nitrophenoxy)propane [3]: 0 nmol/min/mg | Activity of soybean GST enzyme, Chlorimuron Ethyl [4]: 0.1 nmol/min/mg | Activity of soybean GST enzyme, Ethacrynic Acid [5]: 11 nmol/min/mg | Activity of soybean GST enzyme, Alachlor [6]: 0 nmol/min/mg | Activity of soybean GST enzyme, CDNB [7]: 15 nmol/min/mg

B3: ssm.pk0026.g11: soybean type II GST encoded by cDNA insert in clone ssm.pk0026.g11 (protein)
chain: MASASVGKELTLYSYWRSSCSHRVRIALNLKGLKYEYKPVNLLKGEQSRPEFLQLNPVGCVPVLVDDHVVLYDSFAIIMYLEDKYPHNPLLPHDIYKRAINFQAASVVSSTIQPLHNLSLLNYIGEKVGPDEKLPWAQSIIRRGFKALEKLLKDHTGRYATGDEVFLADIFLAPQLHAAFKRFNIHMNEFPILARLHETYNEIPAFQEALPENQPDAVH
Activity of soybean GST enzyme, Atrazine [1]: 0.00 nmol/min/mg | Activity of soybean GST enzyme, T-Stilbene Oxide [2]: 0.04 nmol/min/mg | Activity of soybean GST enzyme, 1,2-epoxy-3-(p-nitrophenoxy)propane [3]: 2 nmol/min/mg | Activity of soybean GST enzyme, Chlorimuron Ethyl [4]: 0.0 nmol/min/mg | Activity of soybean GST enzyme, Ethacrynic Acid [5]: 5 nmol/min/mg | Activity of soybean GST enzyme, Alachlor [6]: 0 nmol/min/mg | Activity of soybean GST enzyme, CDNB [7]: 15 nmol/min/mg
